Experimental data reported in paper PMC3594540.

How the values were obtained:
[1] = molecular target: murine Gαq (residues 7–359), biotinylated for bead binding (murine) (UniProt P21279); assay: flow cytometry protein interaction assay
PLCβ3-Δ892 (human) = PLCβ3-Δ892 (human) (UniProt Q01970)
Gαq-ΔN (murine) = Gαq-ΔN (murine) (UniProt P21279); assay: flow cytometry protein interaction assay
Gαq D296A P298D (murine) = Gαq D296A P298D (murine) (UniProt P21279); assay: flow cytometry protein interaction assay
Gαq K311A (murine) = Gαq K311A (murine) (UniProt P21279); assay: flow cytometry protein interaction assay
PLCβ3-Δ892 T652E (human) = PLCβ3-Δ892 T652E (human) (UniProt Q01970)

Gαq-ΔN (murine), sequence (P21279 37-359, stated change not applied): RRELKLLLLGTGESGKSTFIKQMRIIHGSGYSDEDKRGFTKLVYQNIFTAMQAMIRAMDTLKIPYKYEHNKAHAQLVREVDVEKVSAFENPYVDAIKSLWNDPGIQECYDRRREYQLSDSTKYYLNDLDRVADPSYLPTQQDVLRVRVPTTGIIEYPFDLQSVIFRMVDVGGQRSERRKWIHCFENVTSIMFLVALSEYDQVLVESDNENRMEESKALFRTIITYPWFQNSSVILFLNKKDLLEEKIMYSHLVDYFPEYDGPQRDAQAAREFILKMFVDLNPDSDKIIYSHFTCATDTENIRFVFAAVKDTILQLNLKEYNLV
murine Gαq (residues 7–359), biotinylated for bead binding (murine), sequence (P21279 7-359): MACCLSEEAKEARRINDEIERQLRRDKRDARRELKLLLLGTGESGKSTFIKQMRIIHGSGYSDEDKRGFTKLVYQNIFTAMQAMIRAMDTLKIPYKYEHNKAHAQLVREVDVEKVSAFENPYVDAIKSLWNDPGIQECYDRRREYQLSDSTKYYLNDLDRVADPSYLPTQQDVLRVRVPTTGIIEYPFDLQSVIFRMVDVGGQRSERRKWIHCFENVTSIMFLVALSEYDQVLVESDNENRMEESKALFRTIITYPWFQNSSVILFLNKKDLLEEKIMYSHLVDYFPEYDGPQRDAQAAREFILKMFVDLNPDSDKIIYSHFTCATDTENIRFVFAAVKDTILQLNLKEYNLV
Gαq K311A (murine), sequence (P21279 7-359 K311A): as the sequence (P21279 7-359) above, with K305A counted along it
Gαq D296A P298D (murine), sequence (P21279 7-359 D296A/P298D): as the sequence (P21279 7-359) above, with D290A, P292D counted along it
murine Gαq (residues 7–359), biotinylated for bead binding, sequence (P21279 7-359): as the sequence (P21279 7-359) above
Gαq-ΔN, sequence (P21279 37-359, stated change not applied): as the sequence (P21279 37-359, stated change not applied) above

Substance | EC50 of Gαq-stimulated PIP2 hydrolysis ([3H]-IP3 release from liposomes) (PLCβ3-Δ892 (human)) [µM] | Ki [1] [µM] | further results
AF488-labeled PLCβ3-Δ892 R872A L876A L879A (from UniProt Q01970 10-892) (domain or fragment) | – | – | Kd [1]: 0.04 µM
Gαq C9S C10S (from UniProt P21279 7-359) (natural protein) | 0.15 | – | –
Gαq D296A P298D (from UniProt P21279 7-359) (natural protein) | 0.54 | – | –
Gαq K311A (from UniProt P21279 7-359) (natural protein) | 0.15 | – | –
Gαq-ΔN (from UniProt P21279 37-359) (domain or fragment) | 0.059 | – | –
PLCβ3 I1129E V1133E I1136E triple mutant (from UniProt Q01970) (enzyme) | – | 0.093 | Ki (Gαq-ΔN (murine)): 0.078 µM
PLCβ3 L876A (from UniProt Q01970 10-1234) (enzyme) | – | 0.02 | Ki (Gαq D296A P298D (murine)): 0.012 µM; Ki (Gαq K311A (murine)): 0.016 µM; Ki (Gαq-ΔN (murine)): 0.024 µM
PLCβ3 L876A EEE (from UniProt Q01970) (enzyme) | – | 0.026 | Ki (Gαq-ΔN (murine)): 0.042 µM
PLCβ3 T652E (from UniProt Q01970) (enzyme) | – | 0.16 | –
PLCβ3-Δ882-937 (from UniProt Q01970 10-1234) (enzyme) | – | 0.23 | –
PLCβ3-Δ882-937 L876A (from UniProt Q01970 10-1234) (enzyme) | – | 0.012 | –
PLCβ3-Δ892 (from UniProt Q01970 10-892) (domain or fragment) | – | 0.49 | Ki (Gαq D296A P298D (murine)): 0.42 µM; Ki (Gαq K311A (murine)): 0.38 µM; Ki (Gαq-ΔN (murine)): 0.49 µM
PLCβ3-Δ892 T652E (from UniProt Q01970 10-892) (domain or fragment) | – | 0.25 | –
human PLCβ3 (residues 10–1234) (from UniProt Q01970 10-1234) (enzyme) | – | – | Ki (Gαq K311A (murine)): 0.26 µM
murine Gαq (residues 7–359), biotinylated for bead binding (from UniProt P21279 7-359) (natural protein) | 0.059 | – | EC50 of Gαq-stimulated PIP2 hydrolysis ([3H]-IP3 release from liposomes) (PLCβ3-Δ892 T652E (human)): 0.25 µM
